Measured values as given in doi:10.1101/2022.08.02.502557.

Target: Trimeric LHCII complexes (the major antenna complex of photosystem II) (spinach)
Assay: native gel or EMSA

stoichiometry N: 3
Substance: Trimeric LHCII complexes (the major antenna complex of photosystem II)
